According to patent US20200317776A1 (published 2020):
Substitutions are numbered along the chain they refer to. Each block holds one binder with its values, some of them ahead of it.

What was measured:
[1] = target: T1, human TREM2 Fc fusion (entire TREM2 ECD; only one Fc arm fused to TREM2) (human, UniProt Q9NZC2 19-174); assay: BLI, IgG, avid
T1 construct: also called huTREM2-Fc; recombinant hTREM2
T1 sequence: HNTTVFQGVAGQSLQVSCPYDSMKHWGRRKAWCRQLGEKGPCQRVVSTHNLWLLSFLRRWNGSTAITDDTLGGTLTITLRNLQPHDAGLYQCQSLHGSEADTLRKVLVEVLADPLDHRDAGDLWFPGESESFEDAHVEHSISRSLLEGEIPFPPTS
Protocol: Briefly, IgGs were loaded on-line onto AHQ sensors, Sensors were equilibrated off-line in assay buffer for 30 minutes and then monitored on-line for 60 seconds for baseline establishment. For avid binding measurement, sensors with loaded IgGs were exposed to 100 nM antigen (human or cynomolgus monkey TREM2 Fe fusion using the entire TREM2 ECD; only one Fc arm was fused to TREM2) for 3 minutes, afterwards they were transferred to assay buffer for 3 minutes for off-rate measurement. Monovalent binding measurements were obtained by loading human TREM2 Fc fusion antigens to AHQ sensor and followed by exposure to 100 nM TREM2 antibody Fab. Kinetics data were fit using a 1:1 binding model in the data analysis software provided by ForteBio. Assay was run at room temperature (25° C.).

[2] = target: T1, human TREM2 Fc fusion (entire TREM2 …); assay: BLI, Fab, monovalent
[3] = target: T2, cynomolgus monkey TREM2 Fc fusion (entire TREM2 ECD; only one Fc arm fused to TREM2) (cynomolgus monkey, UniProt Q9NZC2 19-174 (human entry)); assay: BLI, Fab, monovalent
T2 construct: also called cyno TREM2-Fc
T2 chain: T1 sequence with A10E, W60R, L89F, F125V

[4] = target: T3, human TREM2 expressed on cells (human, UniProt Q9NZC2 19-230); assay: FACS, hTREM2 BW cells
T3 construct: BW5147.G.1.4 cells stably expressing human TREM2 together with Dap12, or endogenous TREM2 of primary human myeloid cells; also called huT2 BW; hTREM2 expressing cell line
T3 sequence: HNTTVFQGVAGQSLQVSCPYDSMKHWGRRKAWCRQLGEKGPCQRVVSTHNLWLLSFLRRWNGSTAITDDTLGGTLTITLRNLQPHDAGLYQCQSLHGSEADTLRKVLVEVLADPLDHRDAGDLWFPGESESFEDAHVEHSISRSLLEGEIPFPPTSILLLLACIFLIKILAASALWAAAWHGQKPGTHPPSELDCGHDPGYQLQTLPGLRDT
Description: To examine cell binding of affinity matured anti-TREM2 antibodies, both primary human monocyte derived dendritic cells and recombinant, human TREM2 expressing cells were utilized. For the latter, BW5147.G.1.4 (ATCC® TIB48™) and HEK293T cells stably expressing human TREM2 together with Dap12 using viral infection were established. For primary human monocyte derived dendritic cells, human monocytes were isolated from whole blood using RosetteSep Human monocyte enrichment cocktail (Stemcell technologies) and Ficoll centrifugation per manufacturer protocols. After lysing red blood cells with ACK lysing buffer, monocytes were resuspended in complete media (RPMI, 10% FBS, Pen/Strep, L-glutamine, HEPES, non-essential amino acid, Sodium pyruvate) with 100 ng/ml human GM-CSF (hu-GMCSF) and, human IL-4 (hu-IL-4) to differentiate dendritic cells for 6 days.
Cells were harvested by trypsinization (Hek293T) or scraping (BW and dendritic cells), washed in PBS, counted and plated on 96-well U bottom plates at […] cells/well. The plates were spun at 1,400 rpm for 3 minutes and primary TREM2 or control antibodies were added in FACS buffer (PBS+2% FBS) and incubated on ice for one hour. Cells were subsequently centrifuged as before and washed thrice with FACS buffer. Cells were then incubated with anti-human PE conjugated secondary antibody (BD Biosciences) in FACS buffer for 30 minutes on ice. Cells were again washed thrice with FACS buffer and analyzed on a BD FACS Canto or an Intellicyt Flow Cytometer. Binding was measured as mean fluorescence intensity in the APC channel.

[5] = target: human TREM2/DAP12 fusion protein (human, UniProt O43914 41-113, limits assumed); assay: cell-based or functional assay
Sequence of human TREM2/DAP12 fusion protein (O43914 other isoform, or with tags, fused parts or gaps limits assumed): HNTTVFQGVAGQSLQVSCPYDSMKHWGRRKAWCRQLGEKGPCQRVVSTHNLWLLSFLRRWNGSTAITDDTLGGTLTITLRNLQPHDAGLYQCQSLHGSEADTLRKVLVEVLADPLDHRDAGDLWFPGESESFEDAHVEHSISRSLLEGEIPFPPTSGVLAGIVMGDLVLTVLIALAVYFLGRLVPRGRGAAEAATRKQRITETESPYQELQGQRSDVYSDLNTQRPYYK

B1: AL2p-7 (antibody, V domains shown)
VH: QVQLVQSGAEVKKPGSSVKVSCKASGYAFSLSWMNWVRQAPGQGLEWMGRIYPGDGDTNYAQKFRGRVTITADESTSTAYMELSSLRSEDTAVYYCARLLRNQPGESYAMDYWGQGTLVTVSS
VL: GVVMTQTPLSLSVTPGQPASISCRSSQSLIHSNGYTYLHWYLQKPGQSPQLLIYKVSNRRSGVPDRFSGSGSGTDFTLKISRVEAEDVGVYYCSQSTRVPYTFGQGTKLEIK
notes: Fab and IgG formats under one id
Kd [1]: 0.427 nM | Kd [2]: 8.38 nM | Kd [3]: 8.95 nM | Kd [4]: 1.6 nM | Luciferase activation plate bound 33 nM IgG, FOC [5]: 18.9 FOC | Luciferase activation soluble 10 nM IgG, FOC [5]: 2.35 FOC

B2: AL2p-17 (antibody, V domains shown)
VH: B1 VH with L31S, S32H, F64R, R65Q
VL: B1 VL with G1D, Q27R, I30V, R60V
notes: as for B1
Kd [1]: 0.255 nM | Kd [2]: 4.83 nM | Kd [3]: 4.62 nM | Kd [4]: 1.4 nM | Luciferase activation plate bound 33 nM IgG, FOC [5]: 23.8 FOC | Luciferase activation soluble 10 nM IgG, FOC [5]: 2.13 FOC

B3: AL2p-61 (antibody, IgG1, V domains shown)
VH: B1 VH with L31S, S32Q, D55E, Q62R, R65Q
VL: B1 VL with I30V, G34Q
Kd [2]: 3730 nM | Kd [3]: 3.84 nM

B5: AL2p-10 (antibody, V domains shown)
VH: B1 VH with L31S, S32D, R65Q
VL: B1 VL with I30V
notes: as for B1
Kd [1]: 0.835 nM | Kd [2]: 18.5 nM | Kd [3]: 27.7 nM | Kd [4]: 3.1 nM | Luciferase activation plate bound 33 nM IgG, FOC [5]: 4.63 FOC | Luciferase activation soluble 10 nM IgG, FOC [5]: 1.6 FOC

B8: AL2p-12 (antibody, V domains shown)
VH: B1 VH with L31S, S32H, Q62H, R65Q
VL: B1 VL with I30V
notes: as for B1
Kd [1]: 0.514 nM | Kd [2]: 5.86 nM | Kd [3]: 5.25 nM | Kd [4]: 1.8 nM | Luciferase activation plate bound 33 nM IgG, FOC [5]: 15.8 FOC | Luciferase activation soluble 10 nM IgG, FOC [5]: 1.96 FOC

B11: AL2p-11 (antibody, V domains shown)
VH: B1 VH with L31S, S32D, Q62R, R65Q
VL: B1 VL with G1D, Q27R, I30V, R60V
notes: as for B1
Kd [1]: 0.536 nM | Kd [2]: 9.83 nM | Kd [3]: 10.2 nM | Kd [4]: 2.4 nM | Luciferase activation plate bound 33 nM IgG, FOC [5]: 23.6 FOC | Luciferase activation soluble 10 nM IgG, FOC [5]: 1.71 FOC

Results, then the binder that gave them:

Kd [1]: 0.229 nM | Kd [2]: 3.17 nM | Kd [3]: 2.73 nM | Kd [4]: 1.3 nM | Luciferase activation plate bound 33 nM IgG, FOC [5]: 8.46 FOC | Luciferase activation soluble 10 nM IgG, FOC [5]: 2.06 FOC
B4: AL2p-18 (antibody, V domains shown)
VH: B1 VH with L31S, S32H, F64W, R65Q, E106S
VL: B1 VL with S25T, I30V, R60V
notes: as for B1

Kd [1]: 0.34 nM | Kd [2]: 4.8 nM | Kd [3]: 4.93 nM | Kd [4]: 1.5 nM | Luciferase activation plate bound 33 nM IgG, FOC [5]: 16.5 FOC | Luciferase activation soluble 10 nM IgG, FOC [5]: 2.17 FOC
B6: AL2p-13 (antibody, V domains shown)
VH: B1 VH with L31S, S32H, R65K
VL: B1 VL
notes: Fab and IgG formats under one id; also called AL22-13

Kd [1]: 0.35 nM | Kd [2]: 4.73 nM | Kd [3]: 4.72 nM | Kd [4]: 1.2 nM | Luciferase activation plate bound 33 nM IgG, FOC [5]: 22.4 FOC | Luciferase activation soluble 10 nM IgG, FOC [5]: 2.12 FOC
B7: AL2p-20 (antibody, V domains shown)
VH: B1 VH with L31S, S32H, Q62R, R65Q
VL: B1 VL with S25T, I30V, R60V
notes: as for B1

Kd [1]: 0.303 nM | Kd [2]: 4.02 nM | Kd [3]: 4.01 nM | Kd [4]: 1.4 nM | Luciferase activation plate bound 33 nM IgG, FOC [5]: 25.9 FOC | Luciferase activation soluble 10 nM IgG, FOC [5]: 2.06 FOC
B9: AL2p-19 (antibody, V domains shown)
VH: B1 VH with L31S, S32H, Q62R, R65Q
VL: B1 VL with G1D, Q27R, I30V, R60V
notes: as for B1

Kd [1]: 0.315 nM | Kd [2]: 4.74 nM | Kd [3]: 4.66 nM | Kd [4]: 2.1 nM | Luciferase activation plate bound 33 nM IgG, FOC [5]: 27.1 FOC | Luciferase activation soluble 10 nM IgG, FOC [5]: 1.79 FOC
B10: AL2p-14 (antibody, V domains shown)
VH: B1 VH with L31S, S32H, R65Q
VL: B1 VL with Q27R, I30V, R60F
notes: as for B1
